Assay results: paper PMC9841416

Target: NTH-RNase E D346N D346N (Escherichia coli (K12, P21513-1 in alignment)) (UniProt P21513)
Experiment: EMSA
Settings: 25 mM bis-Tris propane pH 8.3, 100 mM KCl, 15 mM CaCl2, 0.1% (v/v) Triton X-100, 1 mM DTT, 20% (v/v) glycerol, 37 C 20 min; 1% agarose gel in 1x TBE

Row | Substance | Kd [nM]
1 | glnW-metU segment | 27
2 | glnW-tRNA (no flanking single-stranded regions) | 56
3 | metU-tRNA with 5' and 3' single-stranded regions | 19
